Reference: article PMC7677135 (Biophysical Journal, 2020)

Molecular target: T1, PDK1 50–359 [Y288G,Q292A] (human, UniProt O15530 50-359, Y288G | Q292A)
T1 sequence (looked up): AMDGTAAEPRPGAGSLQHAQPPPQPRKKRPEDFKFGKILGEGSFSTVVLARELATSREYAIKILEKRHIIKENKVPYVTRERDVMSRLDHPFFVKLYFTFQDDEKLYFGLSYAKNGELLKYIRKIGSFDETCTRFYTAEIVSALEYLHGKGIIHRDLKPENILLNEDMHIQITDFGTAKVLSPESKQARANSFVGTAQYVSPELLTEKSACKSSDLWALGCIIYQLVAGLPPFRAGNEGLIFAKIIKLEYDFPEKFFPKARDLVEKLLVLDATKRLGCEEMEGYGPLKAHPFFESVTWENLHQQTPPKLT
Test: HDX-MS

**Q.** Does REPRILSEEEQEMFRDFDYIADWC [PIFtide] bind?
**A.** binds
